{
  "source": "patent WO2011147762A2",
  "key": {"[1]": {"molecular_target": "ED-B fibronectin antigen protein (recombinant), bound to CNBr activated sepharose 4B (UniProt P02751)", "sequence (P02751 1266-1356 limits assumed)": "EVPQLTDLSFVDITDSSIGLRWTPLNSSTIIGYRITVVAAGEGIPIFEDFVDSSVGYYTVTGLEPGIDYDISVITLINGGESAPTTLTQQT", "assay": "ED-B sepharose column, % of total radioactivity bound; Study A; inositol 25 mg/mL; day 5"}, "[2]": {"molecular_target": "ED-B fibronectin antigen protein (recombinant), bound to CNBr activated sepharose 4B (UniProt P02751)", "assay": "ED-B sepharose column, % of total radioactivity bound; Study A; maltose 5 mg/mL; day 0"}, "[3]": {"molecular_target": "ED-B fibronectin antigen protein (recombinant), bound to CNBr activated sepharose 4B (UniProt P02751)", "assay": "ED-B sepharose column, % of total radioactivity bound; Study A; inositol 5 mg/mL; day 3"}, "[4]": {"molecular_target": "ED-B fibronectin antigen protein (recombinant), bound to CNBr activated sepharose 4B (UniProt P02751)", "assay": "ED-B sepharose column, % of total radioactivity bound; Study B3; ascorbic acid 25 mg/mL; day 7"}, "[5]": {"molecular_target": "ED-B fibronectin antigen protein (recombinant), bound to CNBr activated sepharose 4B (UniProt P02751)", "assay": "ED-B sepharose column, % of total radioactivity bound; Study B3; inositol 10 mg/mL; day 3"}, "[6]": {"molecular_target": "ED-B fibronectin antigen protein (recombinant), bound to CNBr activated sepharose 4B (UniProt P02751)", "assay": "ED-B sepharose column, % of total radioactivity bound; Study B3; thioglycerol 10 mg/mL; day 1"}, "[7]": {"molecular_target": "ED-B fibronectin antigen protein (recombinant), bound to CNBr activated sepharose 4B (UniProt P02751)", "assay": "ED-B sepharose column, % of total radioactivity bound; Study A; maltose 10 mg/mL; day 1"}, "[8]": {"molecular_target": "ED-B fibronectin antigen protein (recombinant), bound to CNBr activated sepharose 4B (UniProt P02751)", "assay": "ED-B sepharose column, % of total radioactivity bound; Study B3; inositol 10 mg/mL; day 1"}, "[9]": {"molecular_target": "ED-B fibronectin antigen protein (recombinant), bound to CNBr activated sepharose 4B (UniProt P02751)", "assay": "ED-B sepharose column, % of total radioactivity bound; Study A; no-excipient control (saline); day 5"}, "[10]": {"molecular_target": "ED-B fibronectin antigen protein (recombinant), bound to CNBr activated sepharose 4B (UniProt P02751)", "assay": "ED-B sepharose column, % of total radioactivity bound; Study B3; human serum albumin 10 mg/mL; day 5"}, "[11]": {"molecular_target": "ED-B fibronectin antigen protein (recombinant), bound to CNBr activated sepharose 4B (UniProt P02751)", "assay": "ED-B sepharose column, % of total radioactivity bound; Study A; sodium thiosulfate 25 mg/mL; day 0"}, "[12]": {"molecular_target": "ED-B fibronectin antigen protein (recombinant), bound to CNBr activated sepharose 4B (UniProt P02751)", "assay": "ED-B sepharose column, % of total radioactivity bound; Study B3; inositol 10 mg/mL; day 7"}, "[13]": {"molecular_target": "ED-B fibronectin antigen protein (recombinant), bound to CNBr activated sepharose 4B (UniProt P02751)", "assay": "ED-B sepharose column, % of total radioactivity bound; Study A; no-excipient control (saline); day 3"}, "[14]": {"molecular_target": "ED-B fibronectin antigen protein (recombinant), bound to CNBr activated sepharose 4B (UniProt P02751)", "assay": "ED-B sepharose column, % of total radioactivity bound; Study A; methionine 25 mg/mL; day 7"}, "[15]": {"molecular_target": "ED-B fibronectin antigen protein (recombinant), bound to CNBr activated sepharose 4B (UniProt P02751)", "assay": "ED-B sepharose column, % of total radioactivity bound; Study A; sodium thiosulfate 25 mg/mL; day 7"}, "[16]": {"molecular_target": "ED-B fibronectin antigen protein (recombinant), bound to CNBr activated sepharose 4B (UniProt P02751)", "assay": "ED-B sepharose column, % of total radioactivity bound; Study A; maltose 5 mg/mL; day 3"}, "[17]": {"molecular_target": "ED-B fibronectin antigen protein (recombinant), bound to CNBr activated sepharose 4B (UniProt P02751)", "assay": "ED-B sepharose column, % of total radioactivity bound; Study A; maltose 5 mg/mL; day 1"}, "[18]": {"molecular_target": "ED-B fibronectin antigen protein (recombinant), bound to CNBr activated sepharose 4B (UniProt P02751)", "assay": "ED-B sepharose column, % of total radioactivity bound; Study A; sodium thiosulfate 25 mg/mL; day 5"}, "[19]": {"molecular_target": "ED-B fibronectin antigen protein (recombinant), bound to CNBr activated sepharose 4B (UniProt P02751)", "assay": "ED-B sepharose column, % of total radioactivity bound; Study B3; thioglycerol 10 mg/mL; day 0"}, "[20]": {"molecular_target": "ED-B fibronectin antigen protein (recombinant), bound to CNBr activated sepharose 4B (UniProt P02751)", "assay": "ED-B sepharose column, % of total radioactivity bound; Study A; inositol 25 mg/mL; day 0"}, "[21]": {"molecular_target": "ED-B fibronectin antigen protein (recombinant), bound to CNBr activated sepharose 4B (UniProt P02751)", "assay": "ED-B sepharose column, % of total radioactivity bound; Study B3; human serum albumin 10 mg/mL; day 0"}, "[22]": {"molecular_target": "ED-B fibronectin antigen protein (recombinant), bound to CNBr activated sepharose 4B (UniProt P02751)", "assay": "ED-B sepharose column, % of total radioactivity bound; Study A; maltose 50 mg/mL; day 1"}, "[23]": {"molecular_target": "ED-B fibronectin antigen protein (recombinant), bound to CNBr activated sepharose 4B (UniProt P02751)", "assay": "ED-B sepharose column, % of total radioactivity bound; Study B3; inositol 10 mg/mL; day 5"}, "[24]": {"molecular_target": "ED-B fibronectin antigen protein (recombinant), bound to CNBr activated sepharose 4B (UniProt P02751)", "assay": "ED-B sepharose column, % of total radioactivity bound; Study A; sodium thiosulfate 50 mg/mL; day 0"}, "[25]": {"molecular_target": "ED-B fibronectin antigen protein (recombinant), bound to CNBr activated sepharose 4B (UniProt P02751)", "assay": "ED-B sepharose column, % of total radioactivity bound; Study A; maltose 25 mg/mL; day 1"}, "[26]": {"molecular_target": "ED-B fibronectin antigen protein (recombinant), bound to CNBr activated sepharose 4B (UniProt P02751)", "assay": "ED-B sepharose column, % of total radioactivity bound; Study A; methionine 5 mg/mL; day 5"}, "[27]": {"molecular_target": "ED-B fibronectin antigen protein (recombinant), bound to CNBr activated sepharose 4B (UniProt P02751)", "assay": "ED-B sepharose column, % of total radioactivity bound; Study A; inositol 50 mg/mL; day 0"}, "[28]": {"molecular_target": "ED-B fibronectin antigen protein (recombinant), bound to CNBr activated sepharose 4B (UniProt P02751)", "assay": "ED-B sepharose column, % of total radioactivity bound; Study A; trolox 5 mg/mL; day 3"}},
  "data": [
    {"substance": "131I L19-SIP (radioiodinated L19 SIP homodimer)", "values": [
      {"measurement": "Immunoreactivity (%)", "setting": "[1]", "value": 59.9, "unit": "%"},
      {"measurement": "Immunoreactivity (%)", "setting": "[2]", "value": 89.1, "unit": "%"},
      {"measurement": "Immunoreactivity (%)", "setting": "[3]", "value": 64.6, "unit": "%"},
      {"measurement": "Immunoreactivity (IR) (%)", "setting": "[4]", "value": 55.3, "unit": "%"},
      {"measurement": "Immunoreactivity (IR) (%)", "setting": "[5]", "value": 74.8, "unit": "%"},
      {"measurement": "Immunoreactivity (IR) (%)", "setting": "[6]", "value": 60.7, "unit": "%"},
      {"measurement": "Immunoreactivity (%)", "setting": "[7]", "value": 85.4, "unit": "%"},
      {"measurement": "Immunoreactivity (IR) (%)", "setting": "[8]", "value": 77.1, "unit": "%"},
      {"measurement": "Immunoreactivity (%)", "setting": "[9]", "value": 47.6, "unit": "%"},
      {"measurement": "Immunoreactivity (IR) (%)", "setting": "[10]", "value": 53, "unit": "%"},
      {"measurement": "Immunoreactivity (%)", "setting": "[11]", "value": 96.4, "unit": "%"},
      {"measurement": "Immunoreactivity (IR) (%)", "setting": "[12]", "value": 61.9, "unit": "%"},
      {"measurement": "Immunoreactivity (%)", "setting": "[13]", "value": 59.8, "unit": "%"},
      {"measurement": "Immunoreactivity (%)", "setting": "[14]", "value": 58.9, "unit": "%"},
      {"measurement": "Immunoreactivity (%)", "setting": "[15]", "value": 78.5, "unit": "%"},
      {"measurement": "Immunoreactivity (%)", "setting": "[16]", "value": 66.3, "unit": "%"},
      {"measurement": "Immunoreactivity (%)", "setting": "[17]", "value": 84.4, "unit": "%"},
      {"measurement": "Immunoreactivity (%)", "setting": "[18]", "value": 87.9, "unit": "%"},
      {"measurement": "Immunoreactivity (IR) (%)", "setting": "[19]", "value": 80.1, "unit": "%"},
      {"measurement": "Immunoreactivity (%)", "setting": "[20]", "value": 94.1, "unit": "%"},
      {"measurement": "Immunoreactivity (IR) (%)", "setting": "[21]", "value": 76.3, "unit": "%"},
      {"measurement": "Immunoreactivity (%)", "setting": "[22]", "value": 85.9, "unit": "%"},
      {"measurement": "Immunoreactivity (IR) (%)", "setting": "[23]", "value": 61.2, "unit": "%"},
      {"measurement": "Immunoreactivity (%)", "setting": "[24]", "value": 95.8, "unit": "%"},
      {"measurement": "Immunoreactivity (%)", "setting": "[25]", "value": 86.4, "unit": "%"},
      {"measurement": "Immunoreactivity (%)", "setting": "[26]", "value": 62.6, "unit": "%"},
      {"measurement": "Immunoreactivity (%)", "setting": "[27]", "value": 92.3, "unit": "%"},
      {"measurement": "Immunoreactivity (%)", "setting": "[28]", "value": 77.6, "unit": "%"}
    ]}
  ]
}
